Measured values from publication PMC5731645 (Neuron, 2017).
Like-named read-outs stand apart in the source and are kept apart here. Values belong to the binder of their own block, whether it stands above or below them.

B1: DISC1 322–852 (domain or fragment, mouse, UniProt Q811T9-1 322-852, looked up)
chain: ADAHGWHTLLREWEPMLQDYLLSNRRQLEVTSLILKLQKCQEKVVEDGDYDTAETLRQRLEELEQEKGRLSWALPSQQPALRSFLGYLAAQIQVALHGATQRAGSDDPEAPLEGQLRTTAQDSLPASITRRDWLIREKQRLQKEIEALQARMSALEAKEKRLSQELEEQEVLLRWPGCDLMALVAQMSPGQLQEVSKALGETLTSANQAPFQVEPPETLRSLRERTKSLNLAVRELTAQVCSGEKLCSSLRRRLSDLDTRLPALLEAKMLALSGSCFSTAKELTEEIWALSSEREGLEMFLGRLLALSSRNSRRLGIVKEDHLRCRQDLALQDAAHKTRMKANTVKCMEVLEGQLSSCRCPLLGRVWKADLETCQLLMQSLQLQEAGSSPHAEDEEQVHSTGEAAQTAALAVPRTPHPEEEKSPLQVLQEWDTHSALSPHCAAGPWKEDSHIVSAEVGEKCEAIGVKLLHLEDQLLGAMYSHDEALFQSLQGELQTVKETLQAMILQLQPTKEAGEASASYPTAGAQETEA
B2: DISC1 765–835 (domain or fragment, mouse, UniProt Q811T9-1 765-835, looked up)
chain: GPWKEDSHIVSAEVGEKCEAIGVKLLHLEDQLLGAMYSHDEALFQSLQGELQTVKETLQAMILQLQPTKEA
B4: full-length Nde1 (natural protein, human, UniProt Q9NXR1-2 1-335, looked up)
chain: MEDSGKTFSSEEEEANYWKDLAMTYKQRAENTQEELREFQEGSREYEAELETQLQQIETRNRDLLSENNRLRMELETIKEKFEVQHSEGYRQISALEDDLAQTKAIKDQLQKYIRELEQANDDLERAKRATIMSLEDFEQRLNQAIERNAFLESELDEKENLLESVQRLKDEARDLRQELAVQQKQEKPRTPMPSSVEAERTDTAVQATGSVPSTPIAHRGPSSSLNTPGSFRRGLDDSTGGTPLTPAARISALNIVGDLLRKVGALESKLASCRNLVYDQSPNRTGGPASGRSSKNRDGGERRPSSTSVPLGDKGLDTSCRWLSKSTTRSSSSC

Experiments:
full-length Nde1 = target: B4; test: ITC
trx-Ndel1 CT-CC = target: T1, trx-Ndel1 CT-CC (mouse, UniProt Q9ERR1-1 238-284); test: SEC-MALS
T1 chain (looked up): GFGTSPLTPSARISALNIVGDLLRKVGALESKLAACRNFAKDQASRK

SEC-MALS [1] = target: the molecule itself; test: SEC-MALS
DISC1 765–835 = target: B2; test: ITC
DISC1 765–852 = target: T2, DISC1 765–852 (mouse, UniProt Q811T9-1 765-852); test: NMR structure
T2 sequence (looked up): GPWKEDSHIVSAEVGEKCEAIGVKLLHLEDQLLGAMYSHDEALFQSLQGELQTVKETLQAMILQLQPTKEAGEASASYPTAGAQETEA

SEC-MALS [2] = target: the molecule itself; test: SEC-MALS; remark: listed apart in the source
DISC1 322–852 = target: B1; test: ITC

Binder: B1
stoichiometry N (full-length Nde1): 1

Binder: B2
binding result (full-length Nde1): binds
stoichiometry N (trx-Ndel1 CT-CC): 1
stoichiometry N (SEC-MALS [1]): 2

binding result (DISC1 765–835): binds
binding result (DISC1 765–852): binds
Binder: GFGTSPLTPSARISALNIVGDLLRKVGALESKLAACRNFAKDQASRK (domain or fragment, mouse, UniProt Q9ERR1-1 238-284, looked up) [Ndel1 CT-CC]

binding result (DISC1 765–835): binds
Binder: STGGTPLTPAARISALNIVGDLLRKVGALESKLASCRNLVYDQSPNRT (domain or fragment, human, UniProt Q9NXR1-2 239-286, looked up) [Nde1 CT-CC]

B3: Ndel1 with the C-terminal half (aa 194–345) truncated (domain or fragment, mouse, UniProt Q9ERR1-1 1-193, looked up)
chain: MDGEDIPDFSSLKEETAYWKELSLKYKQSFQEARDELVEFQEGSRELEAELEAQLVQAEQRNRDLQADNQRLKYEVEALKEKLEHQYAQSYKQVSVLEDDLSQTRAIKEQLHKYVRELEQANDDLERAKRATIVSLEDFEQRLNQAIERNAFLESELDEKESLLVSVQRLKDEARDLRQELAVRERQQEVTRK
stoichiometry N (SEC-MALS [2]): 2

Binder: B4
Kd (DISC1 322–852): ~40 nM

B5: full-length Ndel1 (natural protein, mouse, UniProt Q9ERR1-1 1-345, looked up)
chain: MDGEDIPDFSSLKEETAYWKELSLKYKQSFQEARDELVEFQEGSRELEAELEAQLVQAEQRNRDLQADNQRLKYEVEALKEKLEHQYAQSYKQVSVLEDDLSQTRAIKEQLHKYVRELEQANDDLERAKRATIVSLEDFEQRLNQAIERNAFLESELDEKESLLVSVQRLKDEARDLRQELAVRERQQEVTRKSAPSSPTLDCEKMDSAVQASLSLPATPVGKGTENSFPSPKAIPNGFGTSPLTPSARISALNIVGDLLRKVGALESKLAACRNFAKDQASRKSYVPGSVNCGVMNSNGPECPRSGRATFFHKGAVNGFDPAPPPPGLGSSRPSSAPGMLPLSV
stoichiometry N (SEC-MALS [2]): 2
